The values below come from US20160108110A1 (Novartis, published 2016).

By Kd is commonly meant a measure of binding affinity in units of concentration. A high value points to a looser complex.

The target of assay [1] is T1, Human ANGPTL4(26-406)-FLAG-His6-Avi (human, UniProt Q9BY76 24-406, biotin on the C-terminal Avi tag in the biotinylated preparations (immobilised form in SET, ELISA and Octet)).
T1 sequence: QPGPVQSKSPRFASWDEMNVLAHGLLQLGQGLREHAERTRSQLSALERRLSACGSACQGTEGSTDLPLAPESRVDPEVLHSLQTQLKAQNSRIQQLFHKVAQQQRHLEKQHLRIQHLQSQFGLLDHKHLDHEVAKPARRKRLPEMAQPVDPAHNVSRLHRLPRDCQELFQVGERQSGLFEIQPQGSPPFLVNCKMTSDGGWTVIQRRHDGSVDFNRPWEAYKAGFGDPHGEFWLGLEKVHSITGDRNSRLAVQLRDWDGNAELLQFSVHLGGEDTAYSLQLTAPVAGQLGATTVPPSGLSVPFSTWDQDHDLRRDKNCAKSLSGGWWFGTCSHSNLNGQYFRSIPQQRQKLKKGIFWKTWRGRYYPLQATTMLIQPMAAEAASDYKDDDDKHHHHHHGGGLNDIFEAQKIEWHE
Put plainly: cell-based or functional assay.

Assay [2] addresses T1, Human ANGPTL4(26-406)-FLAG-His6-Avi. Briefly: SET assay (solution equilibrium titration, MSD), IgG. As for the experimental part: (§1) SET assays were performed as follows. In a 96-well polypropylene plate, a constant concentration of ANGPTL4 antibody was mixed with different concentrations of non-biotinylated human, cyno, mouse, or rat full-length ANPGLT4 protein, or human ANGPTL4 N-terminal domain protein (5-fold serial dilution) and incubated at 22° C. for 14 hours with constant shaking (300 rpm). On a pre-blocked 384-well streptavidin-coated Meso Scale Discovery (MSD) plate biotinylated ANGPTL4 (full-length human, cyno, mouse, or rat ANGPTL4, or human ANGPTL4 N-terminal domain) protein (1 nM, 15 μL per well) was immobilized and washed thereafter.
(§2) The equilibrium binding reactions (15 μL per well) were applied to the MSD plate with immobilized ANGPTL4 and incubated for 20 min at 22° C. The unbound material was removed by washing the plate 3 times with wash buffer, and the captured antibody was detected by adding Sulfo-tagged goat anti-human IgG (Meso Scale Discovery). After washing MSD read buffer T was added and the plate was developed using a Sector Imager 6000 (Meso Scale Discovery). The data were transferred to Microsoft Excel for analysis and plotted using GraphPad Prism v6. The KD values were determined by fitting the data to the following equation: […]
(§3) where Bₘₐₓ is the signal when no ANGPTL4 protein is present in solution, CAb is the constant concentration of ANGPTL4 antibody in solution, CAg is the concentration of ANGPTL4 in solution, and KD is the equilibrium dissociation constant.

Assay [3] shares this target. Put plainly: SET assay. As for the experimental part: as §1, §2, §3

B1: MOR022768 (antibody, human IgG1, kappa, V domains shown)
VH: EVQLLESGGGLVQPGGSLRLSCAASGFTFSSYYLHWVRQAPGKGLEWVSYISGSGSSTYYADSVKGRFTISRDNSKNTLYLQMNSLRAEDTAVYYCARERSYAHDHWGQGTLVTVSS
VL: DIQMTQSPSSLSASVGDRVTITCRASQDIYIDLNWYQQKPGKAPKLLIYAASKLQSGVPSRFSGSGSGTDFTLTISSLQPEDFATYYCQQGYFLPQTFGQGTKVEIKR
notes: human IgG1
Consider B1, for which the “Reversal of human ANGPTL4 inhibition of human LPL EC50” value in assay [1] worked out at 2 nM. This molecule showed a Kd in assay [2] of 0.004 nM.

B2: MOR022771 (antibody, human IgG1, kappa, V domains shown)
VH: EVQLLESGGGLVQPGGSLRLSCAASGFTFSSYWMHWVRQAPGKGLEWVSGISYSGSSTNYADSVKGRFTISRDNSKNTLYLQMNSLRAEDTAVYYCARDSYIYDLHWGFDNWGQGTLVTVSS
VL: DIQMTQSPSSLSASVGDRVTITCRASQDISSYLNWYQQKPGKAPKLLIYAASRLQSGVPSRFSGSGSGTDFTLTISSLQPEDFATYYCQQSYTHPYTFGQGTKVEIKR
notes: human IgG1
For the molecule B2, the “Reversal of human ANGPTL4 inhibition of human LPL EC50” value in assay [1] was determined as 4 nM. The molecule also showed a Kd in assay [2] of 0.029 nM.

B3: MOR023403 (antibody, human IgG1, kappa, V domains shown)
VH: EVQLLESGGGLVQPGGSLRLSCAASGFTFSSYWMHWVRQAPGKGLEWVSVINLGSQAKYAGSVKGRFTISRDNSKNTLYLQMNSLRAEDTAVYYCARDSYIYDLHWGFDNWGQGTLVTVSS
VL: DIQMTQSPSSLSASVGDRVTITCRASQDISSYLNWYQQKPGKAPKLLIYAASRLQSGVPSRFSGSGSGTDFTLTISSLQPEDFATYYCQQSYTHPYTFGQGTKVEIKR
notes: as MOR023400: built on MOR022771, limits derived; the printed CDR is one residue shorter than the parent stretch
Take B3: the Kd in assay [3] was found to be 0.003 nM.

B4: MOR022772 (antibody, human IgG1, kappa, V domains shown)
VH: EVQLLESGGGLVQPGGSLRLSCAASGFTFSSYWMHWVRQAPGKGLEWVSGISYDASSTNYADSVKGRFTISRDNSKNTLYLQMNSLRAEDTAVYYCARDSYIYDLHWGFDNWGQGTLVTVSS
VL: DIQMTQSPSSLSASVGDRVTITCRASQDISSYLNWYQQKPGKAPKLLIYAASRLQSGVPSRFSGSGSGTDFTLTISSLQPEDFATYYCQQSYTHPYTFGQGTKVEIKR
notes: human IgG1
B4: in assay [1], the “Reversal of human ANGPTL4 inhibition of human LPL EC50” value was found to be 5 nM. Further, in assay [2], binding was put at a Kd of 0.053 nM.

B5: MOR022769 (antibody, human IgG1, kappa, V domains shown)
VH: EVQLLESGGGLVQPGGSLRLSCAASGFTFSSYYLHWVRQAPGKGLEWVSYISGDASSTYYADSVKGRFTISRDNSKNTLYLQMNSLRAEDTAVYYCARERSYAHDHWGQGTLVTVSS
VL: DIQMTQSPSSLSASVGDRVTITCRASQDIYIDLNWYQQKPGKAPKLLIYAASKLQSGVPSRFSGSGSGTDFTLTISSLQPEDFATYYCQQGYFLPQTFGQGTKVEIKR
notes: human IgG1
Consider B5, for which the “Reversal of human ANGPTL4 inhibition of human LPL EC50” value in assay [1] was 2 nM. In assay [2], this molecule returned a Kd of 0.005 nM.

B6: MOR022767 (antibody, human IgG1, kappa, V domains shown)
VH: EVQLLESGGGLVQPGGSLRLSCAASGFTFSSYYLHWVRQAPGKGLEWVSYISGEGSSTYYADSVKGRFTISRDNSKNTLYLQMNSLRAEDTAVYYCARERSYAHDHWGQGTLVTVSS
VL: DIQMTQSPSSLSASVGDRVTITCRASQDIYIDLNWYQQKPGKAPKLLIYAASKLQSGVPSRFSGSGSGTDFTLTISSLQPEDFATYYCQQGYFLPQTFGQGTKVEIKR
notes: human IgG1
For the molecule B6, in assay [1], the “Reversal of human ANGPTL4 inhibition of human LPL EC50” value was determined as 2 nM. In assay [2], this molecule showed a Kd of 0.019 nM.

B7: MOR023404 (antibody, human IgG1, kappa, V domains shown)
VH: EVQLLESGGGLVQPGGSLRLSCAASGFTFSSYWMHWVRQAPGKGLEWVSVIPYMGTAKYADSVKGRFTISRDNSKNTLYLQMNSLRAEDTAVYYCARDSYIYDLHWGFDNWGQGTLVTVSS
VL: DIQMTQSPSSLSASVGDRVTITCRASQDISSYLNWYQQKPGKAPKLLIYAASRLQSGVPSRFSGSGSGTDFTLTISSLQPEDFATYYCQQSYTHPYTFGQGTKVEIKR
notes: as for B3
B7 came in with a Kd in assay [3] of 0.008 nM.

B8: MOR023419 (antibody, V domains shown)
VH: QVQLLESGGGLVQPGGSLRLSCAASGFTFSDYALHWVRQAPGKGLEWVSRITYTGVYTGYADSVKGRFTISRDNSKNTLYLQMNSLRAEDTAVYYCAREHYYSSPMGGVAVDNWGQGTLVTVSS
VL: DIVLTQPPSVSGAPGQRVTISCSGSSSNIGYNTVSWYQQLPGTAPKLLIYSNNIRPSGVPDRFSGSKSGTSASLAITGLQAEDEADYYCSSWDFLIKSLVFGGGTKLTVL
notes: as MOR023415: built on parent Fab MOR021798, limits derived
In assay [3], B8 registered a Kd of 0.002 nM. Against the preceding molecule, the Kd is about 4-fold lower.

B9: MOR023420 (antibody, V domains shown)
VH: QVQLLESGGGLVQPGGSLRLSCAASGFTFSDYALHWVRQAPGKGLEWVSRISYMGSSTYYADSVKGRFTISRDNSKNTLYLQMNSLRAEDTAVYYCAREHYYSSPMGGVAVDNWGQGTLVTVSS
VL: DIVLTQPPSVSGAPGQRVTISCSGSSSNIGYNTVSWYQQLPGTAPKLLIYSNNIRPSGVPDRFSGSKSGTSASLAITGLQAEDEADYYCGSFDWVTSHVVFGGGTKLTVL
notes: built on parent Fab MOR021798 with LCDR3 residues 90-99 of the VL replaced (last LCDR3 residue V kept)
In the case of B9, the Kd in assay [3] came out at 0.001 nM.

B10: MOR022764 (antibody, human IgG1, lambda, V domains shown)
VH: EVQLVQSGAEVKKPGESLKISCKGSGYSFSTYWISWVRQMPGKGLEWMGIIDPSQSDTRYSPSFQGQVTISADKSISTAYLQWSSLKASDTAMYYCARVYGYVYMDVWGQGTLVTVSS
VL: SYELTQPLSVSVALGQTARITCSGDNLGKKYAYWYQQKPGQAPVLVIYDKTKRPSGIPERFSGSNSGNTATLTISRAQAGDEADYYCASYDWYSSSYVFGGGTKLTVLG
notes: human IgG1
B10: the “Reversal of human ANGPTL4 inhibition of human LPL EC50” value in assay [1] is 3 nM. In assay [2], this molecule showed a Kd of 0.007 nM.

B11: MOR022766 (antibody, human IgG1, lambda, V domains shown)
VH: EVQLVQSGAEVKKPGESLKISCKGSGYSFSTYWISWVRQMPGKGLEWMGIIDPSNTDTRYSPSFQGQVTISADKSISTAYLQWSSLKASDTAMYYCARVYGYVYMDVWGQGTLVTVSS
VL: SYELTQPLSVSVALGQTARITCSGDNLGKKYAYWYQQKPGQAPVLVIYDKTKRPSGIPERFSGSNSGNTATLTISRAQAGDEADYYCASYDWYSSSYVFGGGTKLTVLG
notes: human IgG1
B11: the “Reversal of human ANGPTL4 inhibition of human LPL EC50” value in assay [1] was 3 nM. The Kd in assay [2] came to 0.005 nM.

B12: MOR022761 (antibody, human IgG1, lambda, V domains shown)
VH: QVQLVQSGAEVKKPGSSVKVSCKASGGTFQSYAISWVRQAPGQGLEWMGGIIPLFGFANYAQKFQGRVTITADESTSTAYMELSSLRSEDTAVYYCARESYDPYAFDVWGQGTLVTVSS
VL: SYELTQPLSVSVALGQTARITCSGDNLGKYSASWYQQKPGQAPVLVIHQDNNRPSGIPERFSGSNSGNTATLTISRAQAGDEADYYCASRAHSMHVVFGGGTKLTVLG
notes: human IgG1
Take B12: in assay [1], the “Reversal of human ANGPTL4 inhibition of human LPL EC50” value was determined as 11 nM. In assay [2], this molecule came in with a Kd of 0.189 nM.

B13: MOR022762 (antibody, human IgG1, lambda, V domains shown)
VH: QVQLVQSGAEVKKPGSSVKVSCKASGGTFSSYAISWVRQAPGQGLEWMGGIIPLFGFANYAQKFQGRVTITADESTSTAYMELSSLRSEDTAVYYCARESYDPYAFDVWGQGTLVTVSS
VL: SYELTQPLSVSVALGQTARITCSGDNLGKYSASWYQQKPGQAPVLVIHQDNNRPSGIPERFSGSNSGNTATLTISRAQAGDEADYYCASRAHSMHVVFGGGTKLTVLG
notes: human IgG1
As to B13, the “Reversal of human ANGPTL4 inhibition of human LPL EC50” value in assay [1] was determined as 4 nM. This molecule yielded a Kd in assay [2] of 0.107 nM.
